These are literature values, as cited in paper PMC7287924.

pKd: −log10 of the molar value.

The series addresses CD47 (Homo sapiens) (UniProt Q08722).

CD47 (Homo sapiens), sequence (Q08722 19-323): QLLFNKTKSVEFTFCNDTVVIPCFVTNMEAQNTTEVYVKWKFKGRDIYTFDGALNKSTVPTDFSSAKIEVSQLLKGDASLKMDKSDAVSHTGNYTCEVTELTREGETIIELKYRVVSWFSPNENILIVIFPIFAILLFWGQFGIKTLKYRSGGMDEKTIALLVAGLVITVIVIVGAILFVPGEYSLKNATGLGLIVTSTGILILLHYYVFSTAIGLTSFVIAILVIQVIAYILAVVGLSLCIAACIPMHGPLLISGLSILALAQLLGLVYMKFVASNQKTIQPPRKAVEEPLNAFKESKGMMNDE
TSP1, sequence (P07996 19-1170): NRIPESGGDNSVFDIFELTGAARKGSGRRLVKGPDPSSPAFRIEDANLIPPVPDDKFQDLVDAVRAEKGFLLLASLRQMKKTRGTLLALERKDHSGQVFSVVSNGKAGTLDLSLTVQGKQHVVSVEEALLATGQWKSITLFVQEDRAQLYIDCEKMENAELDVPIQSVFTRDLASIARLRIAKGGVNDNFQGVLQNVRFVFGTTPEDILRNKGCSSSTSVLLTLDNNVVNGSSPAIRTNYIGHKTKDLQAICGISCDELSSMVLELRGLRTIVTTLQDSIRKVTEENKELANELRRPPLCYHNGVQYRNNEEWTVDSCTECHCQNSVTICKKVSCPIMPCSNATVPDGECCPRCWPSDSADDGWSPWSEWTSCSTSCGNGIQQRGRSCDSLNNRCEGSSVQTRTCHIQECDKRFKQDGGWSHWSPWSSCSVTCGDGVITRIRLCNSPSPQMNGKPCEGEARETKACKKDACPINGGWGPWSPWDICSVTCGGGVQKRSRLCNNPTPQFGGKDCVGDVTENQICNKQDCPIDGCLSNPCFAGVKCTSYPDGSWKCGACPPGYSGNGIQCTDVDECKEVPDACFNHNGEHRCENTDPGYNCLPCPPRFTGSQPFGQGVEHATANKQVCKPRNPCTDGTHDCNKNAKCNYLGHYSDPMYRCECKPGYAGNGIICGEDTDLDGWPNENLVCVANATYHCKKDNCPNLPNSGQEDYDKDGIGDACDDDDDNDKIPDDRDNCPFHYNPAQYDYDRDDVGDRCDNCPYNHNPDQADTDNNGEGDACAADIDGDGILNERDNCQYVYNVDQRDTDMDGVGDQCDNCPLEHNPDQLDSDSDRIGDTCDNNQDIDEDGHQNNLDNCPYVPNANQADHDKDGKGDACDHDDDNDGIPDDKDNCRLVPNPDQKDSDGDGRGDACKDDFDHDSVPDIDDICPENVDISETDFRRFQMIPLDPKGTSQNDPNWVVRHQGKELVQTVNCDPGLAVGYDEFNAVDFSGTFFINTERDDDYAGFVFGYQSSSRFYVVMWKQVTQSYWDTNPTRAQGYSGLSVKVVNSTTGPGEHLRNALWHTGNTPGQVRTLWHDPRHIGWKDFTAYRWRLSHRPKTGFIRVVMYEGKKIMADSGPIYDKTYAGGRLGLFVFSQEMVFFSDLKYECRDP

Regarding TSP1 (from UniProt P07996), the pKd (as a rule, the Kd on a negative log10 scale, so that one unit is a factor of ten) was 11.00.
